Measured values as given in paper PMC10452355, “Phosphoserine Aminotransferase Pathogenetic Variants in Serine Deficiency Disorders: A Functional Characterization” (Biomolecules, 2023).

Target: the molecule itself
Test: SEC; Superdex 200 Increase 5/150 GL, 50 mM HEPES pH 7, 300 mM KCl, room temperature, 0.3 mL/min; loaded at 23 µM, eluting at around 7.5 µM; apparent mass against a calibration curve; self-association (dimer)

B1: phosphoserine aminotransferase (PSAT), wild type, human, PSAT beta (enzyme)
chain: MDAPRQVVNFGPGPAKLPHSVLLEIQKELLDYKGVGISVLEMSHRSSDFAKIINNTENLVRELLAVPDNYKVIFLQGGGCGQFSAVPLNLIGLKAGRCADYVVTGAWSAKAAEEAKKFGTINIVHPKLGSYTKIPDPSTWNLNPDASYVYYCANETVHGVEFDFIPDVKGAVLVCDMSSNFLSKPVDVSKFGVIFAGAQKNVGSAGVTVVIVRDDLLGFALRECPSVLEYKVQAGNSSLYNTPPCFSIYVMGLVLEWIKNNGGAAAMEKLSSIKSQTIYEIIDNSQGFYVCPVEPQNRSKMNIPFRIGNAKGDDALEKRFLDKALELNMLSLKGHRSVGGIRASLYNAVTIEDVQKLAAFMKKFLEMHQL
notes: human phosphoserine aminotransferase, splice form PSAT beta (the long form; PSAT alpha lacks 46 amino acids between V290 and S337); PLP-dependent homodimer; also called wt PSAT; WT; source: E. coli BL21(DE3) tuner, purified (IMAC, Talon superflow); not shown: His tag (from the IMAC purification on Talon)
**Q.** With B1 as the protein, how does the “stoichiometry N” value read?
**A.** Its value is 2.
